Assay: yeast display, Sf9 membrane polyspecificity reagent, FACS + sequencing; frameworks hold sequencing errors
How it was run: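 Galactose-induced (36–48 hours) yeast carrying a synthetic nanobody display library were exposed to 10% biotinylated, detergent-solubilized Sf9 membrane reagent at 4 °C for 1 hour. FACS followed streptavidin microbead enrichment, using low and high (top ~1%) gates for expression (anti-HA) and reagent binding (streptavidin). Colony PCR, MiSeq 2 × 250 sequencing and CDR-length filtering followed. Labels for polyreactivity reflect the gate of origin.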

Sequence: QVQLVESGGGLVQAGGSLRLSCAASGSILSTYAMGWYRQAPGKERELVASISSNAGSTYYADSVKGRFTISRDNAKNTVYLQMNSLKPEDTAVYYCNKDGKYHRVLYDYWGQGTQVTVSS
- polyreactivity (PSR sort gate): low polyreactivity

Sequence: QVQLVESGGGLVQAGGSLRLSCAASGLIFKYNAMGWYRQAPGKERELVAAISTSGGSTYYADSVKGRFTISRDNAKNTVYLQMNSLKPEDTAVYYCNAVAGRPFRYYYWGQGTQVTVSS
- polyreactivity (PSR sort gate): high polyreactivity

Sequence: QVQLVESGGGLVQAGGSLRLSCAASGRTFRANTMGWYRQAPGKERELVAAISHSGGSTYYADSVKGRFTISRDNAKYTVYLQMISLKPEDTAVYYCATDGGSYSWASPRVDYWGQGTQVTVSS
- polyreactivity (PSR sort gate): low polyreactivity

Sequence: QVQLVESGGGLVQAGGSRRLSCAASGRTFDSYTMGWYRQAPGKERELVADITFTGGSTYYADSVKGRFTISRDNAKNTVYLQMNSLKPDDTAVYYCNADREYKWYFRYDYWGQGTQVTVSS
- polyreactivity (PSR sort gate): low polyreactivity

Sequence: QVQLVESGGGLVQAGGSLRLSCAASGSTFARYAMGWYRQAPGKERELVAAITWRGGSTYYADSVKGRFTISRDNAKNTVYLQMNSLKPEDTAVYYCAADFSRRYGYWGQGTQVTVSS
- polyreactivity (PSR sort gate): high polyreactivity

Sequence: QVQLVESGGGLVQAGGSLRLSCAASGLTFEWYAMGWYRQAPGKERELVAAISWNGGSTYYADSVKGRFTISRDNAKNTVYLQMNSLKPEDTAVYYCATSSPRRYYWGQGTLVTVSS
- polyreactivity (PSR sort gate): high polyreactivity

Sequence: QVQLVESGGGLVQAGGSLRLSCAASGSIFGPYAMGWYRQAPGKERELVAAISTRGGRTYYADSVKGRFTISRDNAKNTVYLQMNSLKPEDTAVYYCNARRSDSRSYDYWGQGTQVTVSS
- polyreactivity (PSR sort gate): high polyreactivity

Sequence: QVQLVESGGGLVQAGGSLRLSCAASGSIFYLYAMGWYRQAPGKERELVARITWSGGRTFYADSVKGRFTISRDNAKNTVYLQMNSLKPEDTAVYYCNARYHGKYDYWGQGTQVTVSS
- polyreactivity (PSR sort gate): high polyreactivity

Sequence: QVQLVESGGGLVQAGGSLRLSCAASGSTFLPYAMGWYRQAPGKERELVAAIRWSVGSTYYADSVKGRFTISRDNAKNTVYLQMNSLKPEDTAVYYCAVTYGRGYEYWGQGTQVTVSS
- polyreactivity (PSR sort gate): high polyreactivity

Sequence: QVQLVESGGGLVQAGGSLRLSCAASGYTFSFNAMGWYRQAPGKERELVAAINRGTSTNYADSVKGRFTISRDNAKNTVYLQMNSLKPEDTAVYYCAAGFRRSAGRYDLDYWGQGTQVTVSS
- polyreactivity (PSR sort gate): high polyreactivity

Sequence: QVQLVESGGGIVQAGGRLRLSCAASGNTFQDYAMGWYRQAPGKERELVAAINSGGSTNYADSVKGRFTISRDNAKNTVYLQMNSLKPEDTAVYYCAAEPGEGFDYWGQGTQVTVSS
- polyreactivity (PSR sort gate): low polyreactivity

Sequence: QDQLVESGGGLVQAGGSLRLSCAASGSTFTDYDMGWYRQAPGKERELVAAITSGGSTNYADSVKGRFTISRDNAKNTVYLQMNSLKPEDTAVYYCAAELRYYLYDVVYIVTYDYWGQGTQVTVSS
- polyreactivity (PSR sort gate): low polyreactivity

Sequence: QVQLVESGVGLVQAGGSLRLSCAASGRIFAFYTMGWYRQAPGKERELVAASSTRGDSTYYADSVKGRFTISRDNAKNTVYLQMNSLKAEDTAVYYCAKSRQTSGRVRFDYWGQGTQVTVSS
- polyreactivity (PSR sort gate): low polyreactivity

Sequence: QVQLVESGGGLVQAGGSLRLSCAASGSTLYGNVMGWYRQAPGKERELVATINRGGSTNYADSVKGRFTISRDNAKNTVYLQMNSLKPEDTAVYYCAARGFAWYYLEDYWGQGTQVTVSS
- polyreactivity (PSR sort gate): low polyreactivity

Sequence: QVQLVETGGGLVQAGGSLRLSCAASGITFFGYDIGWYRQAPGKERELVAAINSRGGNTYYADSVKGRFTISRDNAKYTVYLQMNSLKPEDTAVYYCAARRYYNRAYGYWGQGTQVTVSS
- polyreactivity (PSR sort gate): high polyreactivity

Sequence: QVQLVESGGGLVQAGGSLRLSCAASGSTVYASVMGWSRQAPGKARELVAAITSAGSTDYADSVKGRFTISRDNAKNTVYLQMNSRKPEDTAVYYCAADAYTDSPYYKYDYWGQGTQVTVSS
- polyreactivity (PSR sort gate): low polyreactivity

Sequence: QVQLVESGGGLVQAGGSLRLSCAASGFTFVYYAMGWYRQAPGKERELVATISGNGGRTYYADSVKGRFTISRDNAKNTVYLQMNSLIPDDTAVYYCATDVGFGRKQRPHRPGYGYWGQGTLVTVSS
- polyreactivity (PSR sort gate): low polyreactivity

Sequence: QVQLVESGGGLVQAGGSLRLSCAASGITFVRNAMGWYRQAPGKEREFVAAISGSGVSTYADSVKGRFTISRDNAKNTVDEQMISLKPEDTAVYYCARDFPWSYAWYDYWGQGTLVTVSS
- polyreactivity (PSR sort gate): low polyreactivity

Sequence: QVQLVESGGGLVQAGGSLRLSCAASGRIVKYAMGWYRQAPGKERELVAAISGSGGTTYYADSVKGRFTISRDNAKNTVYLQMNSLKPEETAVYYCAASRPRPPSSRRMDYWGQGTQVTVSS
- polyreactivity (PSR sort gate): high polyreactivity

Sequence: QVQLVESGGGLVQAGGSLRLSCAASGRIFAPYAMGWYRQAPGKERELVAGISIGGSTYYADSVKGRFTISRDNAKNTVYLQMNSLKPEDTAVYYCAALYNFWYSTYYYWGQGTQVTVSS
- polyreactivity (PSR sort gate): high polyreactivity

Sequence: QVQLVESGGGLVQAGGSLRLSCAASGRTFPINTMGWSRQAPGKEREFVAAITLGGRTYYADSVKGRFTISRDNAKNTVYLQMNSLKPEDTAVYYCAVAQPGYWLYRHFLPGSDYWGQGTQVTVSS
- polyreactivity (PSR sort gate): high polyreactivity

Sequence: QVQLVESGGGLVQAGGSLRLSCAASGLTFYLYAMGWYRQAPGKERELVAAISRSGGSTYYADSVKGRFTISRDNAKNTVYVQMYSLKPEDTAVYYCAAVTYYPEIRKYYDWRQGTQVTVSS
- polyreactivity (PSR sort gate): high polyreactivity

Sequence: QVQLVESGGGLVQAGGSLRLSCAASGSTFTRNAMGWYRQAPGKERELVAAISGGGGGSTYYADSVKGRFTISRDNAKNTVYLQMNSLKPEDTAVYYCAARAGRYWAAYGYWGQGTQVTVSS
- polyreactivity (PSR sort gate): high polyreactivity

Sequence: QVQQQASGGGLVQAGGSLRLSCATSGSIFYADTMGWYRQAPGKEREFVITYYADSVKGLSRDNAKNTVYLQMNSLKPEDSAVYYCATDGVNPFYAYDYWGQGTQVTVSS
- polyreactivity (PSR sort gate): low polyreactivity

Sequence: QVQLVESGGGLVQAGGSLRLSCAASGSTFFQYAMGWYRQAPGKERELVAAITTSGGRTYYADSVKGRFTISRDNAKNTVYLQMNSLKPEDTAVYYCAGYNYWGQGTQVTVSS
- polyreactivity (PSR sort gate): high polyreactivity

Sequence: QVQQQESGGGLVQEGGSLRLSCAASGYIFDYYYMGWYRQAPGKEREFVATISEGSTTNYADSVKGRFTTSRDNSKNTVYLQMNSLKPEDTAVYYCATDTVYGNDYWGQGTHVTVSS
- polyreactivity (PSR sort gate): low polyreactivity

Sequence: QVQLVESGGGLVQAGGSLRLSCAASGSTFDKYAMGWYRQAPGKERELVAAITWGGGSTYYADSVKGRFTISRDNAKNTVYLQMNSLKPEDTAVYYCAAEQGSSVLYDSWGQGTQVTVSS
- polyreactivity (PSR sort gate): low polyreactivity

Sequence: QVQLVESGGGLVQAGGSLRLSCAASGRIFVQNAMGWYRQAPGKERELVAAISISGARTYYADSVKGRFTISRDNAKNTVYLQMNSLKPEDTAVYYCNASYRDEDDYWGQGTQVTVSS
- polyreactivity (PSR sort gate): high polyreactivity

Sequence: QGQLVESGGGLGQAGGSLRLSCAASGSIFQPNDMGWYRQAPGKERELVATISTGGTTNYADSVKGRFTISRDNAKNTVYLQMNSLKPDDTAVYYCATDRTFTISNYDYWGQGTQVTVSS
- polyreactivity (PSR sort gate): low polyreactivity

Sequence: QVQLVESGGGLVQAGGSLRLSCAASGRTFTSYAIGWYRQAPGKERELVAAISGSGSRTKYADSVKGRFTISRDNAKNTVYLQMNSLKPEDTAVYYCNADYRHRHDYWGQGTQVTVSS
- polyreactivity (PSR sort gate): high polyreactivity

Sequence: QVQLVESGGGLVQAGGSLRLSCAASGSTFDTNAMGWYRQAPGKERELVATITSIGGSTYADSVKGRFTISRDNAKNTVYLQMNSLKPEDNAVYYCATDYVEIDYYYDYWGQGTQVTVSS
- polyreactivity (PSR sort gate): low polyreactivity

Sequence: QVQLVESGGGLVQAGGSLRLSCAASGSTIPSYALGWYRPAPGKERELGASITYSDGTTRYADSVKARFTISRDNAKNTVYLQMNSLKPEDTAVYYCNAVYYREGMDYWGQGTQVTVSS
- polyreactivity (PSR sort gate): low polyreactivity

Sequence: QVHHVESGFGLVQAGGSLRLSCASSGTFTVNTMGWYRQAPGKERELVAAISTGDTTTYADSVKGRFTISRDNAKNTVYLQMNSLKPEDTAVYYCNVDIGVYAYESDYWGQGTQVTVSS
- polyreactivity (PSR sort gate): low polyreactivity

Sequence: QVQLVESGGGLVQAGGSLRLSCAASGSTLSHYAMGWYRQAPGKERELVAAINSNGGSTYYADSVKGRFTISRDNAKNTVYLQMNSLKPEDTAVYYCNTYFRYFSFYGRPFDYWGQGTQVTVSS
- polyreactivity (PSR sort gate): high polyreactivity

Sequence: QVQLVESGGGIVQAGGSLRLSCAASGRHFYTNAMGWYRQAPGKERELVATISGSVGNTYYEDSVKGRFTISRDNAKNTVYLQMNSLKPEDTAVYYCAKAYYTPYGVYVLHYYWGQGTQVTVSS
- polyreactivity (PSR sort gate): high polyreactivity

Sequence: QVQLVESGGGLVQAGGSLRLSCAASGRIFGWYAMGWYRQAPGKERELVAAINRGGSTNYADSVKGRFTISRDNAKNTVYLQMNSLSPEDTGVYYCAVRGVHYTAVTNIIYGYGYWGQGTQVTVSS
- polyreactivity (PSR sort gate): high polyreactivity

Sequence: QVQLVESGGGIVQAGGSLRLSCAASGRTFRGNAMGWYRQAPGKERELVAAIRYRGGSTYYADSVKGRFTISRDNAKNTVYLQMNSLKPEDTAVYDCARRYTVHTQHYDYWGQGTEVTVSS
- polyreactivity (PSR sort gate): high polyreactivity

Sequence: QVPLEESGGGLVQAGGSLRLSCAASGSIFMTYSMGWYRKAPGNERELVAAISWRGGSTYYADSVKGRFTISRDNAKNTVYLQMNSMKPVDTAVYYCAADYYRYGYQGSTTEDDYWGQGTLVTVSS
- polyreactivity (PSR sort gate): low polyreactivity

Sequence: QVQLVESGGGLVQAGGSLRLSCAASGSILGYYAMGWYRHAPRKERELVASITGNGGSTYYADSVKGRFTISRDNAKNTVYLQMISLKPEDTAVYYCAKRVGPYKLGEYDYWGQGTQVTVSS
- polyreactivity (PSR sort gate): high polyreactivity

Sequence: QVQLVESGGGLVQAGGSLRLSCAASGRIFEHYPMGWYRPAPGKERELVAAISRSGGRTYYADSVKGRFTISRDNAKNTVTLQMNSVKPEDTEVDYCAAVGVYWYVYPHEYDYWGQGSQVTVSS
- polyreactivity (PSR sort gate): high polyreactivity

Sequence: QVQLVESGGGLVQAGGSLRLSFAASGRIFYNYAMGWYRQAPGTERELVAAITDSDGSTYADSVKGRFTISRDNAMNTVYFQMNSLKPEDTAVYYCAARRYYPYKYRYGYWGQGTQVTVSS
- polyreactivity (PSR sort gate): high polyreactivity

Sequence: QVQLVESVGGLVQAGGSLRLICAASGSTIFYNAMGWYRQAPGKERELVAAISWSGGRTYYADSVKGRFTISRDNAKNTVYLQMYRLKPEDNAVYYCNTVVSKYYKVGFGSWGQGTQVTVSS
- polyreactivity (PSR sort gate): high polyreactivity

Sequence: QVQLVESGGGLVQAGGSLRLSCAASGSIFNANAMGWYRQAPGKERELVAGIRSGSSTNYADSEKGRFTISRDNAKNTVYLQMNSLKPEDTAVYYCATEGYWVYGFDDEYWGQGTQVTVSS
- polyreactivity (PSR sort gate): low polyreactivity
